This is an account of results in article PMC5296908.

For this experiment, the target named is ADAMTS17-PCD (human). The experiment is described as follows: SPR; ADAMTS17-PCD (3300 RU) or ADAMTS17-AD (2530 RU) amine-coupled to a CM5 chip, BIAcore 3000; analytes flowed at 20 μl/min; 25 °C; TBS with 2 mM CaCl2 and 0.005% SP20; 1:1 stoichiometry assumed. In general terms: Surface plasmon resonance follows binding to a sensor surface in real time, without labels.

Broadly, the Kd is the constant that tells how readily two partners part at equilibrium. Low values mean tighter binding, high ones weaker binding.

On to ADAMTS17-PCD (domain or fragment), for which the Kd is 1400 nM.
